According to PMC5779702, “The glutamine synthetase of Trypanosoma cruzi is required for its resistance to ammonium accumulation and evasion of the parasitophorous vacuole during host-cell infection” (PLoS Neglected Tropical Diseases, 2018):

How the values were obtained:
[1] = target: recombinant Trypanosoma cruzi glutamine synthetase (TcGS), His6-tagged (Trypanosoma cruzi); test: SEC; analytical size-exclusion chromatography of recombinant TcGS (elutions of the Ni-NTA column); mass estimated from a calibration of the column; TcGS followed in the fractions by Bradford, dot-blot, ELISA and GS activity
N[C@@H](CCC(=O)O)C(=O)O = test: purified protein; settings: Mg2+
[2] = system: Nc1ncnc2c1ncn2[C@@H]1O[C@H](COP(=O)(O)OP(=O)(O)OP(=O)(O)O)[C@@H](O)[C@H]1O; test: purified protein; settings: Mg2+
[3] = target: T1, glutamine synthetase (TcGS) (Trypanosoma cruzi, UniProt Q4CN04); test: enzyme inhibition kinetics of purified recombinant TcGS; format: biochemical
T1 construct: gene Tc00.1047053503405.10; recombinant His6-tagged TcGS (TcCLB.503405.10 starting at base pair 123), expressed in E. coli

“recombinant Trypanosoma cruzi glutamine synthetase (TcGS), His6-tagged (enzyme)” was tested. Which stoichiometry N [1] did it give?
Its stoichiometry N is 8.

How did the Km (N[C@@H](CCC(=O)O)C(=O)O) turn out when “glutamine synthetase (TcGS) (Trypanosoma cruzi strain CL Brener)” was run?
The Km was 440 ± 60 µM.

What about the kcat (N[C@@H](CCC(=O)O)C(=O)O) of the same compound?
Its kcat is 392 ± 9.5 s⁻¹.

And the kcat/Km (N[C@@H](CCC(=O)O)C(=O)O)?
The kcat/Km was 890000 M⁻¹ s⁻¹.

What about the Km [2] of the same compound?
The Km was 380 ± 100 µM.

What about the kcat [2] of the same compound?
Its kcat is 396 ± 18.2 s⁻¹.

What about the kcat/Km [2] of the same compound?
Its kcat/Km is 1.05e+06 M⁻¹ s⁻¹.

Which Ki [3] does the source give for `CS(=N)(=O)CCC(N)C(=O)O` (centres unmarked) [MS, Methionine sulfoximine] here?
The Ki was 3.89 ± 0.04 µM.
